Data published in publication PMC4703881.

Target: wild-type T7 DNA polymerase (gp5 with E. coli thioredoxin) (bacteriophage T7 | E. coli) (UniProt P00581)
Sequence (P00581 whole entry, chain 1 of 2): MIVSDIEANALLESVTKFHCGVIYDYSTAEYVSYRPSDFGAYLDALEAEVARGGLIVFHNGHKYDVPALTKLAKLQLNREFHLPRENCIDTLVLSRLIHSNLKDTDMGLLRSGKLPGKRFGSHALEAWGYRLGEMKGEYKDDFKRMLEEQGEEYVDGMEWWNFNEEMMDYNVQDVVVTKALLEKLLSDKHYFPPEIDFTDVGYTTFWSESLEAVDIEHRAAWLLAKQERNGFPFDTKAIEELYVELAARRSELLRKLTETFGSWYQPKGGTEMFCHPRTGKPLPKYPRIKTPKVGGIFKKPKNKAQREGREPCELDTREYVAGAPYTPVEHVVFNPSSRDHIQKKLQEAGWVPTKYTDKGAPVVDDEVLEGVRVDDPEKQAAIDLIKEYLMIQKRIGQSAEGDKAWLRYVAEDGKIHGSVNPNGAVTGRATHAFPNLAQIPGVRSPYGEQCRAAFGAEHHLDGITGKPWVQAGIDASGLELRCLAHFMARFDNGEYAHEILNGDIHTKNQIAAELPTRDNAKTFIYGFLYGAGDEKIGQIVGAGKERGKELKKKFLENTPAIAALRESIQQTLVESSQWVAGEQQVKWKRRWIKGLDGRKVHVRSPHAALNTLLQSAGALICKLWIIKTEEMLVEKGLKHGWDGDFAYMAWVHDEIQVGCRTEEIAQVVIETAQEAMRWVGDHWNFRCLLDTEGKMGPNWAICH
Sequence (P0AA25 whole entry, chain 2 of 2, further chain): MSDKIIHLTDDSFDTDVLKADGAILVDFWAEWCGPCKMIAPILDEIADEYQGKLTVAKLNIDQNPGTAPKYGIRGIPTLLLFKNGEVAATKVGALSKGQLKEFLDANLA

wild-type T7 helicase (gp4), sequence (P03692 whole entry): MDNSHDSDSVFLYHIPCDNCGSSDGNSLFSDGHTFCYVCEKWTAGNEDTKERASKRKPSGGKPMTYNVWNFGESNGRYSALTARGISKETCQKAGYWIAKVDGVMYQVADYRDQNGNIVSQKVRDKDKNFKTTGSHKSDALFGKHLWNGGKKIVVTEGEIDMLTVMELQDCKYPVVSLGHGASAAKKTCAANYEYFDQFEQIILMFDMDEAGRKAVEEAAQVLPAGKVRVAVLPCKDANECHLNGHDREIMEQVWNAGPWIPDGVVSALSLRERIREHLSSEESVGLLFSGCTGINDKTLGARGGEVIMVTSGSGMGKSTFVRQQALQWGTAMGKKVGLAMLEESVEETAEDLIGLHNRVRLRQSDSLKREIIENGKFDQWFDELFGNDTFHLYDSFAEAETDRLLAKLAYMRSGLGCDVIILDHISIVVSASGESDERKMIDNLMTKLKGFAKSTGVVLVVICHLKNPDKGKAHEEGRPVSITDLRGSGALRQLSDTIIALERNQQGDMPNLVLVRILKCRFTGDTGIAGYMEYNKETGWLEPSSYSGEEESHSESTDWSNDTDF

- fraction of single-molecule traces with continued leading-strand synthesis at high rate past a leading-strand CPD lesion, wt DNAP with wt helicase, 6 pN, 0.5 mM dNTP: 28 % of traces
Substance: wild-type T7 helicase (gp4) (from UniProt P03692 1-566) (enzyme)
